From patent US20240270821A1, “GIP/GLP1/GCG TRI-RECEPTOR AGONISTS AND USES THEREOF” (priority 2023, published 2024)

T1: human GIP receptor (human) (UniProt P48546)
T1 sequence (looked up): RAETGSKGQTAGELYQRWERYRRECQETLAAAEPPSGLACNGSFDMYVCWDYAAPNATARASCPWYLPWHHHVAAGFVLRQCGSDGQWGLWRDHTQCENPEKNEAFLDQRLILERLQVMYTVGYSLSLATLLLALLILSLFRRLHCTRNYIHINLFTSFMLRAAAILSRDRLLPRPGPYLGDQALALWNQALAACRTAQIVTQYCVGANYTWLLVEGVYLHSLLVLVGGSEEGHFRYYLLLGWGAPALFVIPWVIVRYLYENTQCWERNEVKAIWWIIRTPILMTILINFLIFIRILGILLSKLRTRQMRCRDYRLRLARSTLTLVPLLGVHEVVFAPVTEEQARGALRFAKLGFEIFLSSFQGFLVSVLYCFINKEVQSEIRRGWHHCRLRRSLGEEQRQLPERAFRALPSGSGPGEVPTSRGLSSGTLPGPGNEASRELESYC


Tests used:
Experiment in all cases: cell-based or functional assay
[1] = molecular target: human glucagon receptor (human) (UniProt P47871)
human glucagon receptor (human), sequence (P47871 26-477): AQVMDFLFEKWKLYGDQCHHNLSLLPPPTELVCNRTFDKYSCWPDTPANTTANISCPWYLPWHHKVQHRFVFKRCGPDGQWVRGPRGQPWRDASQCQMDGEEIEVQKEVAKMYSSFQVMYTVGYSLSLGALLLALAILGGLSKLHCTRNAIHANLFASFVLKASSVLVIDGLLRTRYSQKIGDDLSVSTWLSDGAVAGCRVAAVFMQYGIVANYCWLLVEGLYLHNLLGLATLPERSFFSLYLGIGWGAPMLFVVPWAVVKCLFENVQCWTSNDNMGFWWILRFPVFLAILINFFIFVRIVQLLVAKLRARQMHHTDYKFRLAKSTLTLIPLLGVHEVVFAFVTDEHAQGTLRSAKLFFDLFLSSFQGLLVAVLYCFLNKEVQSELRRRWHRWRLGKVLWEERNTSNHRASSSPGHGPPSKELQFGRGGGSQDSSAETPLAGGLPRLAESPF

[2] = molecular target: T1, human GIP receptor (human)
hGLP-1R = hGLP-1R (Homo sapiens, UniProt P43220)
hGLP-1R, sequence (P43220 24-463): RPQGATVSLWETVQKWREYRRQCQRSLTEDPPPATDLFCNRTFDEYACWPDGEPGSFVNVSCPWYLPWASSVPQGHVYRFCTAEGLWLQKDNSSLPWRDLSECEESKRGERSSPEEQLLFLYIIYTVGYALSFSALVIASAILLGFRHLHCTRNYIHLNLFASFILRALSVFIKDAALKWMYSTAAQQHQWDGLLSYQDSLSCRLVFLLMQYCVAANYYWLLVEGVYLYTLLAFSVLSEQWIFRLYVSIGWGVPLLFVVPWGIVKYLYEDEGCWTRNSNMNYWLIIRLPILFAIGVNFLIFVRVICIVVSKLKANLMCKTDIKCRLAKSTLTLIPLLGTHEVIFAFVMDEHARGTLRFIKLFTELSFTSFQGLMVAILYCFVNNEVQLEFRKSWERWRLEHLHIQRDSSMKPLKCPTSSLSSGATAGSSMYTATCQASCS

Binder	cAMP Rel EC50 (1% HSA) [1] [nM]	cAMP Rel EC50 (1% HSA) [2] [nM]	cAMP Rel EC50 (1% HSA) (hGLP-1R) [nM]	Relative cAMP EC50 [1] [nM]	Relative cAMP EC50 [2] [nM]	Relative cAMP EC50 (hGLP-1R) [nM]	cAMP Rel EC50, nM (in the presence of 1% HSA) [1] [nM]	cAMP Rel EC50, nM (in the presence of 1% HSA) [2] [nM]	cAMP Rel EC50, nM (in the presence of 1% HSA) (hGLP-1R) [nM]
YXQGTFTSDXSQXLDKKAQXAFIEYLIEXGPSSGAPPPSGS (non-natural residues; C18 diacid-γGlu-e on Lys; C-terminal amide; synthetic construct; SITE 2: note = 2-Aminoisobutyric Acid; SITE 10: note = 3-(4-Pyridyl)-L-alanine; SITE 13: note = alpha-methyl-leucine; SITE 17: note = Lysine is chemically modified through conjugation of the epsilon-amino group of the Lysine side chain with D-Glutamic acid-(gamma-Glu)-CO-(CH2)16) [Example 920]	1090	9.05	322	–	–	–	–	–	–
YXQGTFTSDXSQXLDKKAQXAFIEXLLEGGPSSGAPPPSGS (non-natural residues; lipidated Lys; C-terminal amide; synthetic construct; SITE 2: note = 2-Aminoisobutyric Acid; SITE 10: note = 3-(4-Pyridyl)-L-alanine; SITE 13: note = alpha-methyl-leucine; SITE 17: note = Lysine is chemically modified through conjugation of the epsilon-amino group of the Lysine side chain with (2-[2-(2-Amino-ethoxy)-ethoxy]-acetyl)) [Example 910]	2640	25.7	239	9.76	0.111	1.49	–	–	–
YXQGTFTSDXSQXLDKKAQXAFIEYLIEXGPSSGAPPPSEE (non-natural residues; lipidated Lys; D-Glu; synthetic construct; SITE 2: note = 2-Aminoisobutyric Acid; SITE 10: note = 3-(4-Pyridyl)-L-alanine; SITE 13: note = alpha-methyl-leucine; SITE 17: note = Lysine is chemically modified through conjugation of the epsilon-amino group of the Lysine side chain with (2-[2-(2-Amino-ethoxy)-ethoxy]-acetyl)) [Example 919]	467	25.8	454	–	–	–	–	–	–
YXQGTFTSDXSQXLDKKAQXAFIEXLIEGGPSSGAPPPSGS (Aib, 4Pal, Me4Pal, alpha-methyl-Leu, lipidated Lys, amide; synthetic construct; SITE 2: note = 2-Aminoisobutyric Acid; SITE 10: note = 3-(4-Pyridyl)-L-alanine; SITE 13: note = alpha-methyl-leucine; SITE 17: note = Lysine is chemically modified through conjugation of the epsilon-amino group of the Lysine side chain with (2-[2-(2-Amino-ethoxy)-ethoxy]-acetyl)) [Example 948]	537	22.9	304	–	–	–	–	–	–
YXQGTFTSDXSQXLDKKAQXAFIEYLIEXGPSSGAPPPSGS (Aib, 4Pal, αMeL, Me4Pal; acylated Lys; C-terminal amide; synthetic construct; SITE 2: note = 2-Aminoisobutyric Acid; SITE 10: note = 3-(4-Pyridyl)-L-alanine; SITE 13: note = alpha-methyl-leucine; SITE 17: note = Lysine is chemically modified through conjugation of the epsilon-amino group of the Lysine side chain with (D-Glutamic acid)2-(gamma-Glu)-CO-(CH2)) [Example 921]	2130	12.4	261	–	–	–	–	–	–
YXQGTFTSDXSQXLDKKAQXAFIEYLIEXGPSSGAPPPSEG (non-natural residues; lipidated Lys AEEA-γGlu-C18 diacid; synthetic construct; SITE 2: note = 2-Aminoisobutyric Acid; SITE 10: note = 3-(4-Pyridyl)-L-alanine; SITE 13: note = alpha-methyl-leucine; SITE 17: note = Lysine is chemically modified through conjugation of the epsilon-amino group of the Lysine side chain with (2-[2-(2-Amino-ethoxy)-ethoxy]-acetyl)) [Example 918]	590	18	484	–	–	–	–	–	–
YXQGTFTSDXSQXLDKKAQXQFIEXLIEGGPSSGAPPPSGS (non-natural residues, acylated Lys ((γGlu)2-C18 diacid), C-terminal amide; synthetic construct; SITE 2: note = 2-Aminoisobutyric Acid; SITE 10: note = 3-(4-Pyridyl)-L-alanine; SITE 13: note = alpha-methyl-leucine; SITE 17: note = Lysine is chemically modified through conjugation of the epsilon-amino group of the Lysine side chain with (gamma-Glu)2-CO-(CH2)16-CO2H; SITE 20:) [Example 934]	1380	28.1	175	–	–	–	–	–	–
YXQGTFTSDXSKXLDKKAQXAFIEYLIEXGPSSGAPPPSGSEEE (non-natural residues; (γGlu)2-C18 diacid on Lys; C-terminal amide; synthetic construct; SITE 2: note = 2-Aminoisobutyric Acid; SITE 10: note = 3-(4-Pyridyl)-L-alanine; SITE 13: note = alpha-methyl-leucine; SITE 17: note = Lysine is chemically modified through conjugation of the epsilon-amino group of the Lysine side chain with (gamma-Glu)2-CO-(CH2)16-CO2H; SITE 20:) [Example 906]	1170	15.4	236	14.7	0.212	2.48	–	–	–
YXQGTFTSDFSXXLDKKAQXAFIEYLLAGGPSSGAPPPSGEX (synthetic construct; SITE 2: note = 2-Aminoisobutyric Acid; SITE 12: note = L-ornithine; SITE 13: note = alpha-methyl-leucine; SITE 17: note = Lysine is chemically modified through conjugation of the epsilon-amino group of the Lysine side chain with (2-[2-(2-Amino-ethoxy)-ethoxy]-acetyl)-(gamma-Glu)) [Example 91]	–	–	–	9.13	0.243	3.39	1200	23.9	356
